Experimental data from PMC5760710, “The evolution of substrate discrimination in macrolide antibiotic resistance enzymes” (Nature Communications, 2018).
≈ marks a conversion by molar mass, not a printed value.

Assays:
[1] = tested on: CC[C@H]1OC(=O)[C@H](C)C(=O)[C@H](C)[C@@H](O[C@@H]2O[C@H](C)C[C@H](N(C)C)[C@H]2O)[C@](C)(OC)C[C@@H](C)C(=O)[C@H](C)[C@H]2N(CCCCn3cnc(-c4cccnc4)c3)C(=O)O[C@]12C; assay: PK/LDH-coupled continuous assay; format: biochemical, Bacillus subtilis; settings: 200 uM GTP, 10 mM MgCl2, 40 mM KCl, pH 7.5
[2] = tested on: CC[C@H]1OC(=O)[C@H](C)[C@@H](O[C@H]2C[C@@](C)(OC)[C@@H](O)[C@H](C)O2)[C@H](C)[C@@H](O[C@@H]2O[C@H](C)C[C@H](N(C)C)[C@H]2O)[C@](C)(O)C[C@@H](C)CN(C)[C@H](C)[C@@H](O)[C@]1(C)O; assay: PK/LDH-coupled continuous assay; format: biochemical, Bacillus subtilis; settings: 200 uM GTP, 10 mM MgCl2, 40 mM KCl, pH 7.5
[3] = tested on: Nc1nc2c(ncn2[C@@H]2O[C@H](COP(=O)(O)OP(=O)(O)OP(=O)(O)O)[C@@H](O)[C@H]2O)c(=O)[nH]1; assay: PK/LDH-coupled continuous assay; format: biochemical, Bacillus subtilis; settings: 100 uM telithromycin, 10 mM MgCl2, 40 mM KCl, pH 7.5
[4] = tested on: CC[C@H]1OC(=O)C[C@@H](O)[C@H](C)[C@@H](O[C@@H]2O[C@H](C)[C@@H](O[C@H]3C[C@@](C)(O)[C@@H](O)[C@H](C)O3)[C@H](N(C)C)[C@H]2O)[C@@H](CC=O)C[C@@H](C)C(=O)/C=C/C(C)=C/[C@@H]1CO[C@@H]1O[C@H](C)[C@@H](O)[C@@H](OC)[C@H]1OC; assay: purified protein, by the assay type; set-up: continuous PK/LDH-coupled NADH kinase assay, steady-state Km, macrolide or GTP varied; settings: pH 7.5
Experimental: (§1) Steady-state kinetics for Mphs were measured using the continuous PK/LDH-coupled assay[27],[32],[36],[71]. Reactions were performed in 96-well plates (Nunc, Thermo Scientific) using Spectramax Plus384 (Molecular Devices) in duplicate. Individual reactions were 100 µL and contained 50 mM HEPES pH 7.5, 40 mM KCl, 10 mM MgCl2, 0.2 mM NADH, 3.5 mM PEP, and 4.8 U PK/LDH (pyruvate kinase/lactate dehydrogenase). […] For determining the Km for macrolides, GTP was maintained at 200 µM and macrolides were varied between 0.49 µM and 1000 µM. Enzyme efficiency varied considerably between substrates, and therefore some enzymes were used at different concentrations depending on the substrate in order to produce a linear range suitable for Km determination. These concentrations were as follows; MphB 140 nM (most substrates), MphB 36 nM (josamycin), MphI 45 nM (descladinose macrolides), MphI 1.44 µM (C3 cladinose macrolides), Azi_1.1 90 nM (all substrates), Ery_1 (all substrates), MphK 680 nM (all substrates), MphIS111R/T166E/P211L 90 nM (descladinose macrolides), MphIS111R/T166E/P211L 1.43 µM (C3 cladinose macrolides), MphIM40A/S111R/T166E 22 nM (descladinose macrolides), MphIM40A/S111R/T166E 430 nM (C3 cladinose macrolides), MphIS111R/T166E 22 nM (descladinose macrolides), MphIS111R/T166E 1.43 µM (C3 cladinose macrolides). Enzyme kinetics experiments were performed at least two independent times.

[5] = tested on: CC[C@H]1OC(=O)[C@H](C)[C@@H](O[C@H]2C[C@@](C)(OC)[C@@H](O)[C@H](C)O2)[C@H](C)[C@@H](O[C@@H]2O[C@H](C)C[C@H](N(C)C)[C@H]2O)[C@](C)(O)C[C@@H](C)/C(=N\OCOCCOC)[C@H](C)[C@@H](O)[C@]1(C)O; assay: purified protein, by the assay type; set-up: continuous PK/LDH-coupled NADH kinase assay, steady-state Km, macrolide or GTP varied; settings: pH 7.5
Experimental: as §1

MphI = tested on: T1, MphI; assay: PK/LDH-coupled continuous assay; format: biochemical, Paenibacillus sp. LC231; settings: 10 mM MgCl2, 40 mM KCl, pH 7.5
T1 construct: full-length, His-tagged in pET22b, expressed in E. coli BL21(DE3), Ni-NTA purified; primers span nt 1-927

MphB = target: T2, MphB (Escherichia coli, UniProt A0A0H3EUF3); assay: biochemical; set-up: PK/LDH-coupled continuous assay of macrolide phosphorylation; steady-state kinetics, NADH absorbance
T2 construct: codon-optimized gene, N-terminal His tag in pET28a, expressed in E. coli BL21(DE3), Ni-NTA purified
Experimental: as §1, with “times. Steady-state kinetics of Mphs” for “times.”

[6] = tested on: T3, E. coli BW25113 ΔbamBΔtolC; assay: microbe, parasite or virus in culture; settings: Escherichia coli, BW25113, 24 h; empty vector
T3 construct: BW25113 ΔbamBΔtolC empty vector pGDP4
Experimental: mphB was codon optimized, synthetized as a gBlock (IDT) and cloned into pET28a with an N-terminal histidine tag. The codon optimized mphB sequence is in Supplementary Table 17. mphI was previously cloned into pET22b[36]. pGDP4 is a derivative of pET28a with the multiple-cloning site under the control of the constitutive lac promoter. mphI was subcloned into pGDP4 using the XbaI and XhoI restriction sites. E. coli was routinely cultured on LB-Lennox (Bioshop) at 37 °C overnight, and either 100 µg mL^−1 ampicillin or 50 µg mL^−1 kanamycin was used for plasmid selection. E. coli TOP10 (Invitrogen) was used for routine cloning experiments and susceptibility testing of mphs cloned into pGDP4. E. coli BL21(DE3) (Stratagene, USA)was used for protein overexpression experiments. E. coli BW25113 ΔbamBΔtolC is an antibiotic hypersensitive, and was used for susceptibility testing of Mphs cloning into pGDP4. Antibiotic susceptibility testing was performed according to the Clinical and Laboratory Standards Institute guidelines[74] for determining minimal inhibitory concentration (MIC) in 96-well plates (Sarstedt, Germany) in duplicate. MIC values were reproducible. A saline suspension of OD600 of 0.1 was made from 2–3 colonies of a fresh overnight, and diluted 1:200 into Mueller-Hinton Broth (BD Biosciences). […] Susceptibility assays were performed at least two independent times.

MphH = target: T4, MphH (Brachybacterium faecium, UniProt C7MEP1); assay: X-ray crystal structure; format: binding
T4 construct: pMCSG53, N-terminal His6 tag and TEV site, crystallized

[7] = tested on: CC[C@H]1OC(=O)[C@H](C)C(=O)[C@H](C)[C@@H](O[C@@H]2O[C@H](C)C[C@H](N(C)C)[C@H]2O)[C@](C)(OC)C[C@@H](C)C(=O)[C@H](C)[C@H]2N(CCCCn3cnc(-c4cccnc4)c3)C(=O)O[C@]12C; assay: PK/LDH-coupled continuous assay; format: biochemical, Escherichia coli; settings: 200 uM GTP, 10 mM MgCl2, 40 mM KCl, pH 7.5
[8] = tested on: CC[C@H]1OC(=O)[C@H](C)[C@@H](O[C@H]2C[C@@](C)(OC)[C@@H](O)[C@H](C)O2)[C@H](C)[C@@H](O[C@@H]2O[C@H](C)C[C@H](N(C)C)[C@H]2O)[C@](C)(O)C[C@@H](C)C(=O)[C@H](C)[C@@H](O)[C@]1(C)O; assay: PK/LDH-coupled continuous assay; format: biochemical, Escherichia coli; settings: 200 uM GTP, 10 mM MgCl2, 40 mM KCl, pH 7.5
[9] = tested on: CC[C@H]1OC(=O)[C@H](C)[C@@H](O[C@H]2C[C@@](C)(OC)[C@@H](O)[C@H](C)O2)[C@H](C)[C@@H](O[C@@H]2O[C@H](C)C[C@H](N(C)C)[C@H]2O)[C@](C)(O)C[C@@H](C)CN(C)[C@H](C)[C@@H](O)[C@]1(C)O; assay: PK/LDH-coupled continuous assay; format: biochemical, Escherichia coli; settings: 200 uM GTP, 10 mM MgCl2, 40 mM KCl, pH 7.5
[10] = tested on: Nc1nc2c(ncn2[C@@H]2O[C@H](COP(=O)(O)OP(=O)(O)OP(=O)(O)O)[C@@H](O)[C@H]2O)c(=O)[nH]1; assay: PK/LDH-coupled continuous assay; format: biochemical, Escherichia coli; settings: 100 uM telithromycin, 10 mM MgCl2, 40 mM KCl, pH 7.5

Compound: MphK (Bacillus subtilis subsp. subtilis str. 168)
- Km [1]: 4.2 ± 0.45 µM
- kcat [1]: 0.056 ± 0.001 s⁻¹
- Km [2]: 940 ± 320 µM
- kcat [2]: 0.025 ± 0.005 s⁻¹
- Km [3]: 17 ± 1 µM
- kcat [3]: 0.0491 ± 0.0004 s⁻¹
- Km [4]: 6.3 ± 2.4 µM
- kcat [4]: 0.0022 ± 0.0002 s⁻¹
- kcat/Km [4]: 350 M⁻¹ s⁻¹
- Km [5]: 100 ± 25 µM
- kcat [5]: 0.005 ± 0.0004 s⁻¹
- kcat/Km [5]: 49 M⁻¹ s⁻¹

Compound: CC[C@H]1OC(=O)[C@H](C)[C@@H](O[C@H]2C[C@@](C)(OC)[C@@H](O)[C@H](C)O2)[C@H](C)[C@@H](O[C@@H]2O[C@H](C)C[C@H](N(C)C)[C@H]2O)[C@](C)(O)C[C@@H](C)/C(=N\OCOCCOC)[C@H](C)[C@@H](O)[C@]1(C)O [roxithromycin]
- Km (MphI; 200 uM GTP): 32 ± 4 µM
- Ki (MphB): 960 ± 510 µM

Compound: CC[C@H]1OC(=O)[C@H](C)C(=O)[C@H](C)[C@@H](O[C@@H]2O[C@H](C)C[C@H](N(C)C)[C@H]2O)[C@](C)(OC)C[C@@H](C)C(=O)[C@H](C)[C@H]2N(CCCCn3cnc(-c4cccnc4)c3)C(=O)O[C@]12C [telithromycin]
- Km (MphI; 200 uM GTP): 3 ± 0.5 µM
- MIC [6]: 0.125 µg/mL (≈ 0.154 µM)

Compound: Nc1nc2c(ncn2[C@@H]2O[C@H](COP(=O)(O)OP(=O)(O)OP(=O)(O)O)[C@@H](O)[C@H]2O)c(=O)[nH]1 [GTP]
- Km (MphI; 100 uM telithromycin): 10 ± 1 µM

Compound: Nc1nc2c(ncn2[C@@H]2O[C@H](COP(=O)(O)OP(=O)(O)O)[C@@H](O)[C@H]2O)c(=O)[nH]1 [GDP]
- X-ray crystal structure (MphH; nucleotide site, GDP + Pi, crystallized with 5 mM azithromycin and 5 mM GMPPCP): MphH (native) GDP + Pi complex (5UXC)

Compound: NC[C@H]1O[C@H](O[C@H]2[C@H](O)[C@@H](O[C@H]3O[C@H](CO)[C@@H](O)[C@H](N)[C@H]3O)[C@H](N)C[C@@H]2N)[C@H](O)[C@@H](O)[C@@H]1O [Kanamycin]
- MIC [6]: 1 µg/mL (≈ 2.06 µM)

Compound: CC[C@H]1OC(=O)[C@H](C)[C@@H](O[C@H]2C[C@@](C)(OC)[C@@H](O)[C@H](C)O2)[C@H](C)[C@@H](O[C@@H]2O[C@H](C)C[C@H](N(C)C)[C@H]2O)[C@](C)(OC)C[C@@H](C)C(=O)[C@H](C)[C@@H](O)[C@]1(C)O [Clarithromycin]
- MIC [6]: 0.5 µg/mL (≈ 0.668 µM)

Compound: CC[C@H]1OC(=O)[C@H](C)[C@@H](O[C@H]2C[C@@](C)(OC)[C@@H](O)[C@H](C)O2)[C@H](C)[C@@H](O[C@@H]2O[C@H](C)C[C@H](N(C)C)[C@H]2O)[C@](C)(O)C[C@@H](C)C(=O)[C@H](C)[C@@H](O)[C@]1(C)O [erythromycin]
- Km (MphI; 200 uM GTP): 110 ± 10 µM
- MIC [6]: 0.5 µg/mL (≈ 0.681 µM)

Compound: MphB (Escherichia coli O83:H1 str. NRG 857C)
- Km [7]: 6.6 ± 1.8 µM
- kcat [7]: 0.77 ± 0.04 s⁻¹
- Km [8]: 1.6 ± 0.2 µM
- kcat [8]: 0.0412 ± 0.0009 s⁻¹
- Km [9]: 2.9 ± 0.36 µM
- kcat [9]: 0.189 ± 0.004 s⁻¹
- Km [10]: 8.3 ± 0.45 µM
- kcat [10]: 0.602 ± 0.008 s⁻¹

Compound: CC[C@H]1OC(=O)[C@H](C)[C@@H](O[C@H]2C[C@@](C)(OC)[C@@H](O)[C@H](C)O2)[C@H](C)[C@@H](O[C@@H]2O[C@H](C)C[C@H](N(C)C)[C@H]2O)[C@](C)(O)C[C@@H](C)CN(C)[C@H](C)[C@@H](O)[C@]1(C)O [azithromycin]
- X-ray crystal structure (MphH; macrolide-binding cleft, 5 mM azithromycin): MphH (Se-Met) azithromycin complex (5UXD)
- Km (MphI; 200 uM GTP): 56 ± 3 µM
- MIC [6]: 0.063 µg/mL (≈ 0.0841 µM)

Compound: CC[C@H]1OC(=O)C[C@@H](O)[C@H](C)[C@@H](O[C@@H]2O[C@H](C)[C@@H](O[C@H]3C[C@@](C)(O)[C@@H](O)[C@H](C)O3)[C@H](N(C)C)[C@H]2O)[C@@H](CC=O)C[C@@H](C)C(=O)/C=C/C(C)=C/[C@@H]1CO[C@@H]1O[C@H](C)[C@@H](O)[C@@H](OC)[C@H]1OC [Tylosin]
- MIC [6]: 2 µg/mL (≈ 2.18 µM)
- Ki (MphB): 350 ± 160 µM
